Results published in US5455227A, “Biologically active lipoprotein and its use” (KabiGen AB, priority 1988, dated 1995).

Assay: In-vitro surface properties of lipoprotein-based artificial surfactant, pulsating bubble instrument (Example 4)
Assay type: physicochemical
Settings: phospholipid 10 mg/ml, 37° C., compared with native lipoprotein
Procedure: To this mixture surfactant lipoprotein dissolved in chloroform/methanol 1:2 (v/v) was added, giving a lipoprotein to phospholipid ratio of 1:50. The solvents were evaporated to dryness and the different surfactant preparations (phospholipids, phospholipids+lipoprotein fraction) were suspended in saline giving a phospholipid concentration of 10 or 80 mg/ml.
The surface properties of the lipoprotein-based artificial surfactant were analyzed with a pulsating bubble instrument (Surfactometer International, Toronto, Canada) (30). The surfactant preparations were suspended at a phospholipid concentration of 10 mg/ml, and the pressure gradient across the bubble wall was recorded at 37° C. during 50% cyclic surface compression at the rate of 40/min. Surface tension was assessed at maximal and minimal bubble sizes during the 5th cycle and after 1 and 5 min of pulsation.
The tracings therein represent pressure gradients across the bubble wall; max and min indicate maximal (radius 0.55 mm) and minimal (radius 0.40 mm) bubble size during pulsation at a rate of 40/min. A pressure gradient close to zero at minimal bubble size corresponds to nearly zero surface tension.

In the case of “lipopeptide: hexapeptide H2 N-Ile-Pro-Cys-Cys-Pro-Val-COOH conjugated with palmitoyl-chloride (thioester lipopeptide) (H-IPCCPV-OH; also: palmitoyl thioester, Cys not given here)”, the “performance in the procedure of Example 4 (surface properties)” value is reported as “performs similarly as the native lipoprotein”.
